B1: HEEH_KT_rd6_0007 (parent)
chain: SIEEEIKKAEEAKEKGKTFIHGDFVATTEELLDELLKRLRKKL
B2: HHH_rd2_0155 (parent)
chain: PPDDERKKAEKAARSGNEEKAREILERLGYSEDEARELAKRLR

Variants of: B1
Test: folding stability dG (cDNA display proteolysis); higher = more stable
Conditions: PBS, room temperature

Variant | folding stability dG [kcal/mol]
E5I | 2.4
E5Q | 1.61
E5T | 1.84
E5R | 1.09
E5G | 0.897
E5H | 1.11
E5A | 2.05
E5K | 1.06
E5S | 1.31
E5M | 2.05
E5V | 2.13
E5D | 1.23
E5L | 2.35
E5N | 1.05
E5P | 0.677
E5Y | 1.56
E5F | 1.74
E5W | 2.01
E10I | 1.32
E10H | 0.9
E10S | 0.844
E10Q | 1.2
E10D | 0.699
E10W | 1.06
E10A | 0.805

Variant | folding stability dG [kcal/mol]
E10P | 0.607
E10L | 1.58
E10V | 1.17
E10R | 1.02
E10N | 0.992
E10T | 1.06
E10C | 1.49
E10M | 1.44
E10K | 1.04
E10Y | 1
E10F | 1.07
E10G | 0.706
E4K | 1
E4T | 0.909
E4S | 1.12
E4H | 1.06
E4N | 1.02
E4L | 1.21
E4M | 1.26
E4F | 1.03
E4I | 1.03
E4D | 1.27
E4Q | 1.11
E4W | 1.27
E4G | 0.862

Variant | folding stability dG [kcal/mol]
E4V | 0.909
E4R | 1.07
E4Y | 1.06
E4A | 1.25
E4C | 1.78
E4P | 0.777
E3H | 1.12
E3Q | 1.22
E3D | 1.01
E3M | 1.45
E3F | 1.23
E3Y | 1.28
E3R | 1.2
E3A | 1.27
E3L | 1.52
E3K | 1.16
E3P | 0.866
E3G | 0.881
E3V | 1.24
E3W | 1.7
E3T | 1.04
E3S | 1.07
E3I | 1.36
E3N | 0.919
S1E | 1.11

Variant | folding stability dG [kcal/mol]
S1Q | 1.07
S1R | 1.27
S1F | 1.23
S1W | 1.78
S1D | 1.24
S1A | 1.21
S1I | 0.975
S1G | 1.11
S1K | 1.14
S1M | 1.16
S1T | 1.28
S1N | 1.19
S1H | 1.13
S1V | 1.01
S1Y | 1.36
S1L | 1.23
S1P | 1.01
I2T | 0.763
I2Q | 0.766
I2K | 0.732
I2D | 0.705
I2S | 0.818
I2H | 0.643
I2P | 0.683
I2E | 0.545

Variant | folding stability dG [kcal/mol]
I2Y | 0.989
I2L | 1.47
I2V | 1.08
I2W | 1.04
I2F | 0.811
I2A | 0.756
I2N | 0.583
I2G | 0.715
I2R | 0.776
I2M | 0.866
K8G | 0.922
K8A | 1.21
K8R | 1.42
K8F | 0.758
K8H | 0.921
K8T | 0.724
K8P | 0.542
K8Q | 1.22
K8W | 1.02
K8V | 0.672
K8Y | 0.777
K8N | 0.961
K8I | 0.785
K8D | 0.721
K8S | 0.904

Variant | folding stability dG [kcal/mol]
K8L | 1.23
K8M | 1.26
K8E | 0.75
E11A | 1.16
E11C | 1.5
E11I | 1.03
E11D | 1.27
E11F | 0.946
E11K | 0.817
E11G | 0.705
E11P | 0.576
E11L | 1.1
E11N | 0.868
E11M | 1.05
E11H | 0.939
A9I | 1.5
A9E | 0.511
A9Q | 0.596
A9Y | 0.662
A9C | 1.78
A9F | 0.698
A9W | 0.879
A9N | 0.608
A9G | 0.708
A9H | 0.516

Variant | folding stability dG [kcal/mol]
A9L | 1.44
A9T | 0.679
A9P | 0.556
A9M | 0.926
A9D | 0.579
A9K | 0.705
A9V | 1.68
A9R | 0.739
A9S | 0.634
K7S | 0.891
K7P | 0.656
K7M | 1.16
K7I | 1.01
K7W | 0.964
K7H | 1.06
K7F | 0.95
K7Q | 1.25
K7A | 1.31
K7T | 0.994
K7D | 0.626
K7L | 1.14
K7N | 0.942
K7R | 1.6
K7E | 0.935
K7C | 1.38

Variant | folding stability dG [kcal/mol]
K7G | 0.824
K7Y | 0.923
K7V | 0.878
I6Y | 0.676
I6L | 1.04
I6A | 0.662
I6K | 0.651
I6F | 0.542
I6W | 0.615
I6N | 0.587
I6M | 0.782
I6Q | 0.793
I6G | 0.684
I6R | 0.719
I6P | 0.487
I6E | 0.593
I6H | 0.603
I6S | 0.742
I6T | 0.576
I6D | 0.648
I6V | 0.729

Variants of: B2
Test: as above
Conditions: PBS, room temperature

Variant | folding stability dG [kcal/mol]
A39P | -0.361
A39L | 2.36
A39W | 1.01
A39S | 1.02
A39T | 1.21
A39C | 2.23
A39I | 2.75
A39M | 1.75
A39K | 0.184
A39Y | 1.66
A39D | -0.2
A39H | 0.706
A39R | 0.796
A39E | 0.651
A39N | 0.26
A39F | 1.52
A39Q | 0.366
A39G | 0.397
A39V | 2.33
L42P | 0.434
L42F | 2.26
L42W | 3.74
L42A | 1.2

Variant | folding stability dG [kcal/mol]
L42D | 0.37
L42T | 0.69
L42E | 0.286
L42Y | 2.46
L42H | 0.87
L42I | 1.57
L42N | 0.469
L42Q | 0.824
L42R | 0.996
L42C | 1.56
L42M | 2.39
L42S | 0.87
L42G | 0.615
L42V | 0.97
L42K | 0.832
L38D | -0.841
L38R | 0.567
L38G | -0.173
L38Y | 1.67
L38K | 0.756
L38A | 0.925
L38M | 2.09
L38T | 1.09

Variant | folding stability dG [kcal/mol]
L38H | 0.687
L38N | -0.062
L38S | 0.129
L38I | 2.04
L38E | 1.46
L38W | 1.49
L38F | 1.51
L38V | 1.12
L38Q | 0.725
K40E | 1.76
K40H | 2.39
K40Q | 1.84
K40R | 2.52
K40M | 2.22
K40Y | 1.98
K40T | 1.63
K40I | 1.61
K40A | 2.06
K40F | 1.8
K40N | 1.79
K40V | 1.43
K40W | 2.08
K40S | 1.97

Variant | folding stability dG [kcal/mol]
K40L | 1.81
K40P | 0.1
K40G | 1.44
K40D | 1.31
R43K | 1.79
R43L | 1.87
R43S | 1.85
R43G | 1.48
R43N | 1.44
R43M | 2.09
R43H | 1.91
R43W | 2.31
R43Y | 2.39
R43E | 0.924
R43D | 0.613
R43I | 1.55
R43V | 1.77
R43F | 2.48
R43Q | 1.45
R43A | 2.29
R43P | 0.532
R43T | 1.5
R36M | 1.57

Variant | folding stability dG [kcal/mol]
R36Q | 1.34
R36N | 1.14
R36T | 1.31
R36P | -0.165
R36Y | 1.64
R36L | 1.51
R36W | 1.68
R36V | 1.26
R36S | 1.27
E37G | 1.38
E37H | 1.85
E37L | 2.17
E37N | 1.82
E37P | -0.452
E37M | 2.16
E37A | 2.27
E37Q | 2.1
E37V | 2.03
E37D | 1.73
E37I | 2.21
E37C | 2.36
E37K | 2.1
E37R | 2.34

Variant | folding stability dG [kcal/mol]
E37W | 2.41
E37F | 1.98
E37Y | 2.17
E37S | 2.05
E37T | 1.95
R41Q | 1.78
R41M | 1.86
R41A | 1.56
R41Y | 1.73
R41T | 1.37
R41L | 2.04
R41F | 1.91
R41D | 0.97
R41C | 1.92
R41N | 1.39
R41S | 1.43
R41H | 1.66
R41I | 1.6
R41W | 1.85
R41V | 1.35
R41K | 1.98
R41E | 1.05
R41G | 0.69

— the MegaScale stability set (Tsuboyama et al. 2023)
